1 protein from paper PMC4870115 (Biochemistry, 2016) can be followed below.

The data set concerns the molecule itself. The experiment in a line: crystal structure.

What is called stoichiometry N is a count of units in the complex or per binding partner.

B1: ToxA of Burkholderia glumae (enzyme)
chain: MSTTARYDSIGGLFEDFTQSAAQRAIEVRTIFHMIGDVSGKSVLDLACGFGFFGREIYRRGAAKVVGVDISEKMIELAREESRKYGDPLEFHVRDVANMEPLGQFDLVNAAWLFNYADSVENLRKMFKVVRASLKPDGKLVAYTVDPDFSLAKGNFAKYGVNVLNERAWGPGYRHDAEFVTDPPSQFSFYRWSRADYESAIADAGFSHFEWQKPLLEADDIATHPPGFWDVFQNNCLQTGLVCKP
For B1, the “stoichiometry N” value came out at 4.
